According to article PMC4820748, “Structural basis for the membrane association of ankyrinG via palmitoylation” (Scientific Reports, 2016):

Target: the molecule itself
Experiment: crystal structure; oxidized form, C121 crystal; sitting-drop vapor diffusion at 20 °C; reservoir 10 mM MgCl2-hexahydrate, 50 mM Tris-HCl (pH 7.5), 1.6 M (NH4)2SO4; asymmetric unit holds one dimeric molecule

B1: AnkG (R1-R5), head-section of the membrane-binding domain of rat ankyrin-G (domain or fragment)
chain: GTKSDANASYLRAARAGHLEKALDYIKNGVDVNICNQNGLNALHLASKEGHVEVVSELLQREANVDAATKKGNTALHIASLAGQAEVVKVLVTNGANVNAQSQNGFTPLYMAAQENHLEVVRFLLDNGASQSLATEDGFTPLAVALQQGHDQVVSLLLENDTKGK
notes: two extra residues, Gly-Thr, left at the N-terminus after the TEV cleavage; In the oxidized form two chains are linked by a disulfide bond between the two Cys70 residues; in the reduced form Cys70 is free; also called ANK3 (R1-R5); AnkG palmitoylation domain; source: E. coli BL21(DE3)pLysS, purified (nickel column, TEV cleavage, superdex200 gel filtration); not shown: His tag, N-terminal, cleaved
stoichiometry N: 2
